T1: RSV F protein of subtype A comprising a polypeptide of SEQ ID NO: 1 and a polypeptide of SEQ ID NO: 2 (RSV subtype A, UniProt P11209 137-513; P03420 26-109)
T1 construct: Stabilized prefusion F trimer made of three F2-F1 heterodimers; Produced recombinantly in CHO cells; also called RSV A; RSVA
T1 chain 1: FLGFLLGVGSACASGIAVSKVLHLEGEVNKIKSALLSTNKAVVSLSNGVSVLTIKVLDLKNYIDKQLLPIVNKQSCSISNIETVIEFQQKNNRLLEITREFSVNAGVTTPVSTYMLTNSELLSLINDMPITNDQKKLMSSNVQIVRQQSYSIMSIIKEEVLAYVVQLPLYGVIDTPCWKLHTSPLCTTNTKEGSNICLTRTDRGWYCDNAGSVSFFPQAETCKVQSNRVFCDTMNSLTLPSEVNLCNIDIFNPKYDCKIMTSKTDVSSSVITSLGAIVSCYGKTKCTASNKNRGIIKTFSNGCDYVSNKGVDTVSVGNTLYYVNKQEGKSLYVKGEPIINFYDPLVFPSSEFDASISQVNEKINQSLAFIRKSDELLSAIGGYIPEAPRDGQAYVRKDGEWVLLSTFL
T1 chain 2: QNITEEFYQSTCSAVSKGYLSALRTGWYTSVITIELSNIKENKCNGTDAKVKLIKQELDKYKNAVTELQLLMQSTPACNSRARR


What was measured:
[1] = target: RSV A + RSV B bivalent composition (RSV subtype A; RSV subtype B); experiment: AM14 Fab titration by SEC; High-Slow 2 cycle; T0
[2] = target: RSV A + RSV B bivalent composition (RSV subtype A; RSV subtype B); experiment: AM14 Fab titration by SEC; Target cycle; T0 (second value)
[3] = target: RSV A + RSV B bivalent composition (RSV subtype A; RSV subtype B); experiment: AM14 Fab titration by SEC; High-Slow 1 cycle; 1 M 25°C
[4] = target: RSV A + RSV B bivalent composition (RSV subtype A; RSV subtype B); experiment: AM14 Fab titration by SEC; Target cycle; 3 M 25°C
[5] = target: T1, RSV F protein of subtype A comprising a …; experiment: AM14 ELISA; F17 (pH 7, 50 mM NaCl, 4.5% trehalose); 1 wk 5°C
[6] = target: T1, RSV F protein of subtype A comprising a …; experiment: AM14 ELISA; F5 (pH 6, 100 mM NaCl, 9.0% sucrose); 2 wk 25°C
[7] = target: T1, RSV F protein of subtype A comprising a …; experiment: AM14 ELISA; F7 (pH 6, 100 mM NaCl, 0% sucrose); 2 wk 25°C
[8] = target: T1, RSV F protein of subtype A comprising a …; experiment: AM14 ELISA; F12 (pH 8, 100 mM NaCl, 9.0% sucrose); 1 wk 5°C
[9] = target: T1, RSV F protein of subtype A comprising a …; experiment: AM14 ELISA; F19 (pH 7, 50 mM NaCl, 3% trehalose + 3% mannitol); 1 wk 5°C
[10] = target: T1, RSV F protein of subtype A comprising a …; experiment: AM14 ELISA; F9 (pH 8, 50 mM NaCl, 4.5% sucrose); T0
[11] = target: T1, RSV F protein of subtype A comprising a …; experiment: AM14 ELISA; F1 (pH 8, 100 mM NaCl, 0% sucrose); 2 wk 5°C
[12] = target: T1, RSV F protein of subtype A comprising a …; experiment: AM14 ELISA; F19 (pH 7, 50 mM NaCl, 3% trehalose + 3% mannitol); 2 wk 25°C
[13] = target: T1, RSV F protein of subtype A comprising a …; experiment: AM14 ELISA; F4 (pH 6, 50 mM NaCl, 4.5% sucrose); T0
[14] = target: T1, RSV F protein of subtype A comprising a …; experiment: AM14 ELISA; F5 (pH 6, 100 mM NaCl, 9.0% sucrose); 1 wk 5°C
[15] = target: T1, RSV F protein of subtype A comprising a …; experiment: AM14 ELISA; F18 (pH 7, 50 mM NaCl, 3% sucrose + 3% mannitol); 1 wk 25°C
[16] = target: T1, RSV F protein of subtype A comprising a …; experiment: AM14 ELISA; F8 (pH 7, 50 mM NaCl, 0% sucrose); 1 wk 5°C

Molecule	Prefusion Content (%) [1] [%]	Prefusion Content (%) [2] [%]	Prefusion Content (%) [3] [%]	Prefusion Content (%) [4] [%]	AM14 prefusion content (%), relative to standard [5] [%]	AM14 prefusion content (%), relative to standard [6] [%]	AM14 prefusion content (%), relative to standard [7] [%]	AM14 prefusion content (%), relative to standard [8] [%]	AM14 prefusion content (%), relative to standard [9] [%]	AM14 prefusion content (%), relative to standard [10] [%]	AM14 prefusion content (%), relative to standard [11] [%]	AM14 prefusion content (%), relative to standard [12] [%]	AM14 prefusion content (%), relative to standard [13] [%]	AM14 prefusion content (%), relative to standard [14] [%]	AM14 prefusion content (%), relative to standard [15] [%]	AM14 prefusion content (%), relative to standard [16] [%]
AM14 Fab	61	77	51	71	–	–	–	–	–	–	–	–	–	–	–	–
AM14 (trimeric prefusion specific antibody of the AM14 ELISA) (antibody, V domains shown, Antibody as used in the AM14 ELISA, detected with an HRP-labeled secondary antibody) VH: EVQLVESGGGVVQPGRSLRLSCAASGFSFSHYAMHWVRQAPGKGLEWVAVISYDGENTYYADSVKGRFSISRDNSKNTVSLQMNSLRPEDTALYYCARDRIVDDYYYYGMDVWGQGATVTVSS VL: DIQMTQSPSSLSASVGDRVTITCQASQDIKKYLNWYHQKPGKVPELLMHDASNLETGVPSRFSGRGSGTDFTLTISSLQPEDIGTYYCQQYDNLPPLTFGGGTKVEIKR	–	–	–	–	59	98	55	98	74	94	100	84	57	78	83	99

Reference: patent publication US20260097113A1 (Pfizer, published 2026)
